From publication PMC1874666 (Nucleic Acids Research, 2007)

Target: the molecule itself
Assay: AUC

B1: Helicobacter pylori neutrophil-activating protein (HP-NAP) (natural protein, UniProt P43313 1-144, looked up)
chain: MKTFEILKHLQADAIVLFMKVHNFHWNVKGTDFFNVHKATEEIYEEFADMFDDLAERIVQLGHHPLVTLSEAIKLTRVKEETKTSFHSKDIFKEILEDYKYLEKEFKELSNTAEKEGDKVTVTYADDQLAKLQKSIWMLQAHLA
stoichiometry N: 12
